# Columns and labels:
# [1] = target: Lys6-linked diubiquitin, P0CG48
# [2] = target: Lys63-linked diubiquitin (enzymatically assembled), P0CG48
# [3] = target: Lys29-linked diubiquitin, P0CG48
# Chain of Lys29-linked diubiquitin, P0CG48 (P0CG48 whole entry, looked up): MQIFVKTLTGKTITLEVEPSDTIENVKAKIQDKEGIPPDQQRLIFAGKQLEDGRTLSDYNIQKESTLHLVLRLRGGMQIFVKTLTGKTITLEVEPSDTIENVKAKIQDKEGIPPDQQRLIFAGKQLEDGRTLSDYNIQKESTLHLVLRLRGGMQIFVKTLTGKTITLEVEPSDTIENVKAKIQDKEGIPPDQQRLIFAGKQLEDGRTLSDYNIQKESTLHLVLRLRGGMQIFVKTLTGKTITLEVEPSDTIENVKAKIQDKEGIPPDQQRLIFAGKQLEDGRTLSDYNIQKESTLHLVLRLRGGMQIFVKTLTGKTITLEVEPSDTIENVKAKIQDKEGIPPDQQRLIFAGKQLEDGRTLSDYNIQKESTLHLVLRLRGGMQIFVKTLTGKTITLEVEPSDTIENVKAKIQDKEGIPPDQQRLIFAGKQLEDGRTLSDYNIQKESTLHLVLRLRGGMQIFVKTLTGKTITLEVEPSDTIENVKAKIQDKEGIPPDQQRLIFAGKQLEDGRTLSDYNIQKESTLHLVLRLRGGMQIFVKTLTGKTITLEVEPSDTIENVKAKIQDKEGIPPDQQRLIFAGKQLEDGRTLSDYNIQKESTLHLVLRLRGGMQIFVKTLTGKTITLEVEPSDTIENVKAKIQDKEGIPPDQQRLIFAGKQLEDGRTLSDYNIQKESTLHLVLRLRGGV
# Chain of Lys63-linked diubiquitin (enzymatically assembled), P0CG48 (P0CG48 whole entry, looked up): as above
# Chain of Lys6-linked diubiquitin, P0CG48 (P0CG48 whole entry, looked up): as above
Protein,cleavage in in vitro deubiquitinase assay (SDS-PAGE) [1],cleavage in in vitro deubiquitinase assay (SDS-PAGE) [2],cleavage in in vitro deubiquitinase assay (SDS-PAGE) [3],"cleavage in in vitro deubiquitinase assay (SDS-PAGE, silver stain) [1]","cleavage in in vitro deubiquitinase assay (SDS-PAGE, silver stain) [2]","specificity constant (kcat/Km), fluorescence anisotropy [2]","specificity constant (kcat/Km), quantitative western blot [2]","cleavage in in vitro deubiquitinase assay (SDS-PAGE, silver stain) [3]",fold better substrate than Lys63-linked diubiquitin [3],"specificity constant (kcat/Km), quantitative western blot [3]"
USP15 (protein) MAEGGAADLDTQRSDIATLLKTSLRKGDTWYLVDSRWFKQWKKYVGFDSWDKYQMGDQNVYPGPIDNSGLLKDGDAQSLKEHLIDELDYILLPTEGWNKLVSWYTLMEGQEPIARKVVEQGMFVKHCKVEVYLTELKLCENGNMNNVVTRRFSKADTIDTIEKEIRKIFSIPDEKETRLWNKYMSNTFEPLNKPDSTIQDAGLYQGQVLVIEQKNEDGTWPRGPSTPKSPGASNFSTLPKISPSSLSNNYNNMNNRNVKNSNYCLPSYTAYKNYDYSEPGRNNEQPGLCGLSNLGNTCFMNSAIQCLSNTPPLTEYFLNDKYQEELNFDNPLGMRGEIAKSYAELIKQMWSGKFSYVTPRAFKTQVGRFAPQFSGYQQQDCQELLAFLLDGLHEDLNRIRKKPYIQLKDADGRPDKVVAEEAWENHLKRNDSIIVDIFHGLFKSTLVCPECAKISVTFDPFCYLTLPLPMKKERTLEVYLVRMDPLTKPMQYKVVVPKIGNILDLCTALSALSGIPADKMIVTDIYNHRFHRIFAMDENLSSIMERDDIYVFEININRTEDTEHVIIPVCLREKFRHSSYTHHTGSSLFGQPFLMAVPRNNTEDKLYNLLLLRMCRYVKISTETEETEGSLHCCKDQNINGNGPNGIHEEGSPSEMETDEPDDESSQDQELPSENENSQSEDSVGGDNDSENGLCTEDTCKGQLTGHKKRLFTFQFNNLGNTDINYIKDDTRHIRFDDRQLRLDERSFLALDWDPDLKKRYFDENAAEDFEKHESVEYKPPKKPFVKLKDCIELFTTKEKLGAEDPWYCPNCKEHQQATKKLDLWSLPPVLVVHLKRFSYSRYMRDKLDTLVDFPINDLDMSEFLINPNAGPCRYNLIAVSNHYGGMGGGHYTAFAKNKDDGKWYYFDDSSVSTASEDQIVSKAAYVLFYQRQDTFSGTGFFPLDRETKGASAATGIPLESDEDSNDNDNDIENENCMHTN,disassembled this chain type as efficiently as K63-linked chains,disassembled this chain type as efficiently as K63-linked chains,"appreciably higher resistance to hydrolysis by USP2, USP15 and USP21 than K6- and K63-linked ubiquitin",,,,,,,
TRABID (protein) LEVDFKKLKQIKNRMKKTDWLFLNACVGVVEGDLAAIEAYKSSGGDIARQLTADEVRLLNRPSAFDVGYTLVHLAIRFQRQDMLAILLTEVSQQAAKCIPAMVCPELTEQIRREIAASLHQRKGDFACYFLTDLVTFTLPADIEDLPPTVQEKLFDEVLDRDVQKELEEESPIINWSLELATRLDSRLYALWNRTAGDCLLDSVLQATWGIYDKDSVLRKALHDSLHDCSHWFYTRWKDWESWYSQSFGLHFSLREEQWQEDWAFILSLASQPGASLEQTHIFVLAHILRRPIIVYGVKYYKSFRGETLGYTRFQGVYLPLLWEQSFCWKSPIALGYTRGHFSALVAMENDGYGNRGAGANLNTDDDVTITFLPLVDSERKLLHVHFLSAQELGNEEQQEKLLREWLDCCVTEGGVLVAMQKSSRRRNHPLVTQMVEKWLDRYRQIRPCTSLS,,,,did not cleave Lys6-linked diubiquitin,cleaves Lys29 linkages more rapidly than Lys63 linkages,1.7 (±2.0)×10^3 M^-1 s^-1,2.5 (±0.4)×10^3 M^-1 s^-1,cleaves Lys29 linkages more rapidly than Lys63 linkages,40-fold better substrate,1.0 (±0.2)×10^5 M^-1 s^-1
AMSH (protein) MSDHGDVSLPPEDRVRALSQLGSAVEVNEDIPPRRYFRSGVEIIRMASIYSEEGNIEHAFILYNKYITLFIEKLPKHRDYKSAVIPEKKDTVKKLKEIAFPKAEELKAELLKRYTKEYTEYNEEKKKEAEELARNMAIQQELEKEKQRVAQQKQQQLEQEQFHAFEEMIRNQELEKERLKIVQEFGKVDPGLGGPLVPDLEKPSLDVFPTLTVSSIQPSDCHTTVRPAKPPVVDRSLKPGALSNSESIPTIDGLRHVVVPGRLCPQFLQLASANTARGVETCGILCGKLMRNEFTITHVLIPKQSAGSDYCNTENEEELFLIQDQQGLITLGWIHTHPTQTAFLSSVDLHTHCSYQMMLPESVAIVCSPKFQETGFFKLTDHGLEEISSCRQKGFHPHSKDPPLFCSCSHVTVVDRAVTITDLR,,,,inactive against Lys6- and Lys29-linked diubiquitin,cleaves Lys63-linked diubiquitin under identical reaction conditions with high activity,,,inactive against Lys6- and Lys29-linked diubiquitin,,

# — patent US20160304571
